Source: patent publication US20260008815A1, “CYCLIC PEPTIDE OR SALT THEREOF, AND USES THEREOF” (FUJIFILM Corporation, priority 2023, published 2026)
Bridge positions count the residues as written; N and C are the ends. Ends that are not written are not given here. COCH2 = acetyl group that carries the bridge

B1: cyclic peptide SEQ ID NO: 402 (peptide)
peptide: PCEVYNYWYPTQWFFFTQFK(COCH2)K
modifications: thioether 2-20; not fully specified; printed as P-(C)-EVYNYWYPTQWFFFTQF-(K(acetyl))-K
B2: cyclic peptide SEQ ID NO: 404 (peptide)
peptide: DCIRPYDQLQLIYQYLYQLK(COCH2)K
modifications: thioether 2-20; not fully specified; printed as D-(C)-IRPYDQLQLIYQYLYQL-(K(acetyl))-K

molecular target: T1, Recombinant Human FGFR2 alpha (IIIc) Fc Chimera Protein, CF (R&D systems, 712-FR-050) (human, UniProt P21802 22-377); experiment: ELISA on plate-bound FGFR2-Fc
T1 construct: bought; not shown: Fc part of the chimera
T1 sequence (P21802 22-377, change not shown): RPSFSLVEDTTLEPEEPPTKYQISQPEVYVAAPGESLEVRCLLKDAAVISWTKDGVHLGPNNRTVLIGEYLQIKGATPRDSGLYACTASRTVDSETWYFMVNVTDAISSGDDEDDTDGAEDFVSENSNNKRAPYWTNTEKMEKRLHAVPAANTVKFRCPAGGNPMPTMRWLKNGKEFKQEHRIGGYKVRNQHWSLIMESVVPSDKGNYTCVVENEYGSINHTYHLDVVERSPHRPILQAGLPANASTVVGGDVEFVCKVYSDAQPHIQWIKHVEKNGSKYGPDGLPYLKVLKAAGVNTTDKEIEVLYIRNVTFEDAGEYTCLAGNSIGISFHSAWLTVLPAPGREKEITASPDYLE
How it was run: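 Peptide binding scored by category from dose-response of background-corrected luminescence (FGFR-coated minus uncoated wells). Detection via anti-Myc antibody (2 h, room temperature) after 3 h peptide incubation on wells coated with 5 ng FGFR2 alpha (IIIc)-Fc.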

ELISA luminescence signal at 10 nmol/L peptide, relative to SEQ ID NO: 47 (=1)	Binder
≥ 0.7 ratio	TCVDKDNWYNHVQWQYFFLYK(COCH2)Q (thioether 2-21) [cyclic peptide SEQ ID NO: 411]
0.1 to 0.5 ratio	QCLQDLYRYLYLLK(COCH2)A (thioether 2-14) [cyclic peptide SEQ ID NO: 374]
≥ 0.7 ratio	B1
0.1 to 0.5 ratio	PCDRQLYYLYQYIHK(COCH2)T (thioether 2-15) [cyclic peptide SEQ ID NO: 382]
0.1 to 0.5 ratio	HCSQHQTTYYQIYAYLHAIK(COCH2)I (thioether 2-20 (inferred)) [cyclic peptide SEQ ID NO: 408]
0.1 to 0.5 ratio	QCQFLNYVNHVQWHYFWVFK(COCH2)S (thioether 2-20) [cyclic peptide SEQ ID NO: 401]
≥ 0.7 ratio	KCQNFINPVQWRYFQHYKN (not fully specified; thioether ring (C)-(K(acetyl))) [cyclic peptide SEQ ID NO: 68]
0.1 to 0.5 ratio	NCQLYYTYLYLHTLK(COCH2)F (thioether 2-15) [cyclic peptide SEQ ID NO: 379]
0.1 to 0.5 ratio	HCLHYLYQYLYTVK(COCH2)Y (thioether 2-14) [cyclic peptide SEQ ID NO: 377]
≥ 0.7 ratio	VCQQDNYFYPQQWFFFVHYK(COCH2)H (thioether 2-20) [cyclic peptide SEQ ID NO: 400]
0.1 to 0.5 ratio	QCLTQRVYLRQLAYYRLYRK(COCH2)I (thioether 2-20 (inferred)) [cyclic peptide SEQ ID NO: 405]
0.1 to 0.5 ratio	KCPQNFINPVQWRYFQHYAKN (thioether ring (C)-(K(acetyl))) [cyclic peptide SEQ ID NO: 69]
0.1 to 0.5 ratio	QCIQDLYLYLYFLK(COCH2)T (thioether 2-14) [cyclic peptide SEQ ID NO: 376]
0.1 to 0.5 ratio	QCDQDAIQWVYDLQYYRVWHK(COCH2)V (thioether 2-21 (inferred)) [cyclic peptide SEQ ID NO: 413]
≥ 0.7 ratio	LCNNWENYFDWLQWSYYIAYK(COCH2)E (thioether 2-21 (inferred)) [cyclic peptide SEQ ID NO: 409]
0.1 to 0.5 ratio	RCHHNFHHARQHGFFYHYK(COCH2)R (thioether 2-19) [cyclic peptide SEQ ID NO: 388]
0.1 to 0.5 ratio	RCHHNFHHARQHRFFHHYK(COCH2)R (thioether 2-19) [cyclic peptide SEQ ID NO: 387]

ELISA luminescence signal at 10 nmol/L peptide, relative to SEQ ID NO: 47 (=1)	Binder
0.5 to 0.7 ratio	RCHHNFHHARQWGFFHHYK(COCH2)R (thioether 2-19) [cyclic peptide SEQ ID NO: 386]
0.1 to 0.5 ratio	RCHHNFHHARQHGFFWHYK(COCH2)R (thioether 2-19) [cyclic peptide SEQ ID NO: 389]
≥ 0.7 ratio	PCEQQNFHSVIQWHFFAQYK(COCH2)N (thioether 2-20 (inferred)) [cyclic peptide SEQ ID NO: 406]
0.5 to 0.7 ratio	KCAPQNFINPVQWRYFQHYKN (thioether ring (C)-(K(acetyl))) [cyclic peptide SEQ ID NO: 70]
0.5 to 0.7 ratio	ACRRANWIHPIQWFFFHVYK(COCH2)H (thioether 2-20) [cyclic peptide SEQ ID NO: 403]
0.1 to 0.5 ratio	QCPRQLYYLYLYLSK(COCH2)I (thioether 2-15) [cyclic peptide SEQ ID NO: 378]
0.5 to 0.7 ratio	LCVQGNYQNPTQWYYFQLYK(COCH2)W (thioether 2-20 (inferred)) [cyclic peptide SEQ ID NO: 407]
0.1 to 0.5 ratio	YCPPQLVYLYQYLYK(COCH2)L (thioether 2-15) [cyclic peptide SEQ ID NO: 380]
0.1 to 0.5 ratio	VCQEYYLYQYVYELK(COCH2)Y (thioether 2-15) [cyclic peptide SEQ ID NO: 381]
0.1 to 0.5 ratio	QCYNYQYIYQYIYK(COCH2)I (thioether 2-14) [cyclic peptide SEQ ID NO: 373]
0.1 to 0.5 ratio	B2
0.1 to 0.5 ratio	QCEYALQYYRFYVAQRHWVDK(COCH2)L (thioether 2-21 (inferred)) [cyclic peptide SEQ ID NO: 412]
0.1 to 0.5 ratio	QCQLYYLYQYAYALK(COCH2)V (thioether 2-15) [cyclic peptide SEQ ID NO: 383]
0.5 to 0.7 ratio	QCAYYHLYQYLHQLK(COCH2)V (thioether 2-15) [cyclic peptide SEQ ID NO: 385]
0.1 to 0.5 ratio	QCQLYYLYQYTIAIK(COCH2)T (thioether 2-15) [cyclic peptide SEQ ID NO: 384]
≥ 0.7 ratio	WCQESSNYLAPLQWYFFNWYK(COCH2)T (thioether 2-21 (inferred)) [cyclic peptide SEQ ID NO: 410]
0.1 to 0.5 ratio	DCLQFIYQYLYTVK(COCH2)I (thioether 2-14) [cyclic peptide SEQ ID NO: 375]
